The values that follow come from paper PMC8196545 (Cell reports, 2021).

Substitutions are numbered along the chain they refer to.

For this test, the target named is HIV-1 NL4-3 Env on infected cells (HIV-1 group M subtype B, NL4-3 (pNL4-3 …, strain)).

B1: c11450 (antibody, V domains shown)
V domain 1: EVQLAQSGAEMRKPGTTVRISCVISGHTTTDYYVHWVQQAPGKGPQWMGLINFEDANTVYSQSFRGRVSISADISEKTVFLDLTGLTSGDTALYFCTTHTLEKDSGDYVSAFDSWGQGTLLSVSP
V domain 2: QSMLTQPPSISAVPGQKVIISCSGRTSNIGTNFVSWYQQVPGAAPRLLMYDNSNRPSGISDRFSGAKSGSTATLAITALQTEDEADYYCGSWDSGLNPPIFVFGPGTRVFVI
B1: the binding result was “binds”.

B2: c18622 (antibody, V domains shown)
VH: EVRLLESGGGLVQPGQSLRLSCAASGFTFRNYALAWVRQTPRKGLEWVSLLSSSGDGAFYADSLKGRFTISRDNSKNTLYLEGHSLRADDSAIYYCVKVRWLQYDWHFDLWGRGALVTVSS
VL: AIRMTQSPSTLSASVGDRVTIACRASQDIGSSLAWYQQRPGQAPRLLIYKASVLEGGVPSRFSGSGSGTEFRLIISSLQADDYATYYCQQYSGYSCTFGQGTKVDIT
As for B2, the binding result is listed as “binds”.

B3: c1369 (antibody, V domains shown)
VH: QVRLHQWGEGLLRPSDTLSLTCSLSGNVFYRTFFNWIRQSPGKGLEWIAEVSFAGDWTYNPSLKSRVTTYVDGFKYHVSLQMRSMTAADAGVYYCASGGGSFDVDSWGQGIRVTVSS
VL: EIVLTQTPLSSSVTLGQSASISCRSSQSLQHSNGNTYLSWFQQRPGQPPRLLIRKISNRFSEVPDRFTGSGSGTDFTLTIDRVEPEDVGTYYCVQATQFPWTFGQGTTVDIT
Take B3: the binding result is “binds”.

B4: c1141 (antibody, V domains shown)
VH: B3 VH with R31E, T58N, V78A, Q81H, S97A, D105H
VL: B3 VL with S18A, R24T, S26N, Q27H, G46D, F60G, E62G, T68S, D75H
In the case of B4, the binding result is given as “binds”.

B5: c29288 (antibody, V domains shown)
VH: QVRLQESGPGLVRPSETLSLTCLVSGDSITSNYWSWIRQPPGKTLEWIGFMYNSGDANYNPSLQSRVSISADTAKNHFALRLTSVTAADTAVYYCARHPSRGSDYESATGDTYYYYYGMDVWGPGIAVAVSS
VL: DIQMTQSTPSLSASLGDKITISCQASRDIDTSLNWYQQKPGKSPKLLIVAASTLETGVPSRFSASGSGTHFTLTINDLHRDDVATYFCQQYMGLPLTFGGGTRVDLR
Take B5: the binding result was “binds”.

B6: c5221 (antibody, V domains shown)
VH: QPQMKQSGIEVKKPGAAVKVSCKPSGYWFIACGISWVRQAPGRGLEWLGWVYPYNGKVNLARKFWGRVTLTADRSTETAYMELKSLTSDDTAIYYCARDSEQYDAAMPNYFTEYGMDVWGQGTTVIVSS
VL: EIVLTQSPDTLSLSPGETAALSCRASQSITGKGLAWYKQRPGQPPSLFVFGVSKRAAGVPDRVSGSGSGTDYILTIRRLEPEDSAVYFCQQYQDPARTFGQGTKLEIK
Take B6: the binding result is recorded as “binds”.

B7: c21122 (antibody, V domains shown)
VH: QVQLAQSAAEVKRPGASVKVSCKVSGNTLMEVSIQWVRQTPGKGLEWLGGFAPEKDDWVYAQKFLGRVTMTEDTSTDIAYMHMNSLTSDDTATYYCVGGWQAWGQGTLVTVSS
VL: DIQMTQSPSSLSASVGDRITITCRASQDIINYLAWYQQQAGRAPKSLIYAASSLQSGVPSKFSGSGSGTNFSLTISSLQPEDFATYYCQQYYSYPLTFGGGTKVDLR
For B7, the binding result was “binds”.

B8: c5539 (antibody, V domains shown)
VH: QVRLEQWGPGLLKPSETLSLTCAVYGESFDDYSWTWIRQTPSLGLQWIGEIRPFGEIVHKSSLSGRLSFSRDASMRRVYLKLTSVTAADAGVYFCARGPVIYQNPHFYYRGYNVWGQGTTVTVSA
VL: DVAVTQSPRSLVVTPGETATIFCRSSQSLRHGNGMHYLDWYLQKPGQSPQLLIYLTSNRASGVPDRFSGSGSGTEFTLKISRVEADDVGIYYCMQAIQDPRVFGQGTRLELK
With B8, the binding result was “binds”.

B9: c11395 (antibody, V domains shown)
VH: DVQLLQSNPQVTKPGTTMKISCKTSGFTFSDHFIHWVRLTPARGLEWLGLLDPQGGESVTVFSETFKDRVTMTADTSKNIAYMELHTLTSEDTALYFCATTTLENDDGDYVAAFDFWGQGTPVIVSS
VL: QSVLTQTPSVSAAPGQKVTISCSGSTSNIGSNFVSWYQHSPGAAPRLIIYNNAERPSGIPARFSGSKSGSSATLAITGLQTEDEAEYFCAAWNNGLKSAHYVFGTGTRLSVL
For the molecule B9, the binding result is reported as “binds”.

B10: c27071 (antibody, V domains shown)
VH: QFRLEQSGAEVKRPGSSVKVSCKATGGTFHTFVLSWVRQAPGQALEWMGGIIPIFGTAKYAQRFQGRVTFTTDEATNTAYMDLRRLTSDDTAVYFCARSATSDTALVDYGDYEADTFYHNHMDVWGGGTSVTVSS
VL: QSVLTQPPSASATPGQRVTISCSGSSSNIGSNSVTWYHQLPGTAPKVLIYSNDRRPSGVPDRFSGSKSGTSASLAISGLQSDDEGDFYCAAWDDSLKSPVFGGGTKLTVL
Consider B10, for which the binding result is given as “binds”.

B11: c11673 (antibody, V domains shown)
VH: EVKLVESGGTQVQPGGSLRISCVGSGIRFSSYSFNWVRQAPGKGPEWLAYISASPFGRSKVTYAQSVEGRFTVSRDNDANSLYLQMTGLTRDDTAVYYCARAPYYEGNFHYNYAMDVWGLGTPVIVSS
VL: GVVLTQSPGTLSVSPGERATVSCRASQSLSRDSLVWYQQKPGQPPRLLIFGTSNRVPGIPDRFSGGGSGTQFTLTISRLEPEDFAVYYCQNYGLSPLYSFGQGTKLEIK
With B11, the binding result is reported as “binds”.

B12: c10919 (antibody, V domains shown)
VH: B11 VH with I27F
VL: B11 VL with V21I, F50Y, Y98F
As for B12, the binding result was “binds”.

B13: c11452 (antibody, V domains shown)
VH: B11 VH with I27F, A49T, Q65P, T72I, Y98H, H110Q, P123T
VL: B11 VL with V13L, F50Y
For the molecule B13, the binding result is “binds”.

B14: c5300 (antibody, V domains shown)
VH: QMQLQESGPGLVKPSETLTVTCYVSGGSISRYHWAWIRQSAGKPLEWIGSVYGNSGSVRSSPSLHTRVALVIGSTYFSLKLKSATAADTAVYYCARELARDFNYDFGHGGSSFGIDVWGRGIMVTVSS
VL: NFILTQPHSVSGSPGKTVIISCTRSSGNIGDNSVQWYQHRPGTSPTTVISEKNRRPSGIPGRFSASIDTSSNSASLTISDLRSEDEAVYYCQSCDGGNRLIFGGGTTLTVL
For the molecule B14, the binding result is given as “binds”.

B15: c13501 (antibody, V domains shown)
VH: QVQLQQWGAGLLKPSETLSLTCAIYGGSFDDNSWTWIRQSPGGGLEWIGEIKYSGTSDYNLSLKSRITMSIDMSKKQFSLKLTSVTAADTGLYFCARARLSKFNSAWSWEHHYYMDVWATGTAVTVSS
VL: DIQMTQSPSSLSASVGDRVTVTCRASQNIGNYLNWYQQKPGKAPKLLIFATSTLHGGVPSRFSGSGSGTDFTLSITNVQSEDVAIYFCQQSYSVPYSFGRGTSLDMR
On to B15, for which the binding result was “binds”.
